According to the supplement of paper PMC9732359:
± gives the uncertainty stated by the source.

Assay: protein stability index of a GFP-peptide fusion (yeast GPS) (PSI 1-4); higher = more stable; sorted into four equal gates, so the index is relative within each strain
Procedure, shortened: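 Yeast carrying a pooled library were grown to mid-log phase in leucine-free medium. Each library plasmid expresses Cherry and has a tiled 17-residue yeast protein peptide fused downstream of GFP. Cells were sorted into four equal gates by GFP/Cherry ratio, and plasmids from each gate were PCR-amplified, Illumina-sequenced and assigned to strains by barcode. Summing, across gates, the read frequency times the gate number gave each peptide's protein stability index.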

Row | Sequence | protein stability index (doa10∆) | protein stability index (pdr5∆) | protein stability index (san1∆) | protein stability index (ubr1∆)
1 | HGNLASCHGHFGHLKLA [RPO31] | 1.48 ± 0.06 | 1.45 ± 0.061 | 1.14 ± 0.1 | 1.2 ± 0.033
2 | IKFLLTFIDKERHQKQL [YCS4] | 1.7 ± 0.18 |  | 1.58 ± 0.27 | 
3 | FVVGVDNVSSQQMHEVR [RPP0] | 2.1 ± 0.078 | 2.74 ± 0.1 | 3.07 ± 0.15 | 2.74 ± 0.08
4 | DTLKENATEVQKESDAK [ITC1] | 2.87 ± 0.11 | 2.94 ± 0.12 | 2.85 ± 0.086 | 3.16 ± 0.26
5 | LARGHRVEKIPEIPLVV [RPL4A] |  | 3.42 ± 0.25 |  | 
6 | LRLCLDIVPYFLKHNGE [RPN1] | 2.3 ± 0.063 | 2.01 ± 0.037 | 1.71 ± 0.082 | 2.52 ± 0.074
7 | TQQSHEQQPEQPQETEE [RPT4] | 2.9 ± 0.056 | 3.16 ± 0.058 | 2.99 ± 0.056 | 2.98 ± 0.047
8 | EKFDLERVTALKNCKIS [SMC1] | 3.44 ± 0.2 |  | 3.38 ± 0.11 | 
9 | TALKQYEKELMGDELTR [RPN6] | 3.26 ± 0.13 | 3.54 ± 0.15 | 3.42 ± 0.077 | 3.51 ± 0.12
10 | TTSYIKEQENITIQDLL [DPB4] | 3.09 ± 0.19 | 2.83 ± 0.17 | 2.86 ± 0.082 | 3.02 ± 0.27
11 | ANGTFMDFGVDPSMDPE [RPN10] | 2.87 ± 0.12 | 3.05 ± 0.091 | 2.65 ± 0.12 | 2.87 ± 0.085
12 | LTRNAPLDSKDENFASV [SNF2] | 3.04 ± 0.08 | 3.2 ± 0.079 | 3.07 ± 0.067 | 3.1 ± 0.074
13 | SVNIAFAISMGYLFKVS [ECM29] | 2.21 ± 0.14 | 2.84 ± 0.13 | 2.83 ± 0.093 | 3.22 ± 0.13
14 | IQPKNSDDQQEAVELVI [YML103C/NUP188] | 2.85 ± 0.19 |  | 3.4 ± 0.13 | 3.34 ± 0.12
15 | SAVLLETTLGEMAEKID [PRP8] | 1.12 ± 0.13 | 1.55 ± 0.098 | 1.21 ± 0.2 | 1.65 ± 0.11
16 | LYKEFFNEKFPSLIQEE [NUT1] | 3 ± 0.13 | 3.19 ± 0.13 | 3.06 ± 0.059 | 3.2 ± 0.12
17 | ISKNPSNGIFYGPSFTK [SIR2] | 2.94 ± 0.071 | 3.03 ± 0.054 | 2.76 ± 0.059 | 3.15 ± 0.039
18 | SSIHAIGSIKEDYLGAI [RPB7] | 2.61 ± 0.076 | 2.74 ± 0.064 | 2.71 ± 0.067 | 3.01 ± 0.095
19 | QLPKQLWRNFCRKLSFS [ITC1] | 2.67 ± 0.059 | 2.66 ± 0.05 | 2.6 ± 0.039 | 2.66 ± 0.034

Row | Sequence | protein stability index (doa10∆) | protein stability index (pdr5∆) | protein stability index (san1∆) | protein stability index (ubr1∆)
20 | PAINYTKLKNAVQNESV [QCR2] | 1.9 ± 0.064 | 1.79 ± 0.059 | 2.2 ± 0.092 | 1.54 ± 0.048
21 | NRSWDHAYNITFNNQDK [RPO31] | 2.75 ± 0.073 | 2.82 ± 0.061 | 2.7 ± 0.071 | 2.97 ± 0.042
22 | NAQLSCITKQDGFKIYD [PUP2] | 3.04 ± 0.16 | 3.17 ± 0.12 | 3.12 ± 0.098 | 3.07 ± 0.1
23 | VGVHIADVTHFVKPGTA [DIS3] | 2.51 ± 0.055 | 2.14 ± 0.058 | 2.9 ± 0.052 | 2.76 ± 0.063
24 | HLLPRNEWIKAQEDVPY [QCR7] | 2.31 ± 0.072 | 1.68 ± 0.086 | 2.17 ± 0.089 | 1.88 ± 0.046
25 | AATNETFENINSLFYLK [IRR1] | 2.43 ± 0.25 | 2.37 ± 0.21 | 2.71 ± 0.17 | 
26 | MSLKDKLLIQIDELSNG [SMC1] | 2.27 ± 0.084 | 2.34 ± 0.11 | 3.08 ± 0.11 | 2.52 ± 0.1
27 | SFQLSKIRRAARDLLTR [RPS9A] | 2.06 ± 0.044 | 2.24 ± 0.044 | 2.21 ± 0.045 | 1.98 ± 0.032
28 | HHYEECAERVKIQQQQP [QCR6] | 3.25 ± 0.12 | 3.04 ± 0.18 | 2.85 ± 0.11 | 3.13 ± 0.15
29 | PSELNQLKMVNERELNV [RPC82] | 3.14 ± 0.13 | 2.94 ± 0.15 |  | 
30 | SSEIDRENVKSKDEPVS [SIR4] | 3.13 ± 0.15 | 3.33 ± 0.12 | 2.92 ± 0.082 | 3.27 ± 0.086
31 | SVRLQVTKILPHLIIQN [IRR1] | 1.65 ± 0.091 | 1.7 ± 0.064 | 1.72 ± 0.094 | 1.7 ± 0.06
32 | EEYLDANVFRLENQKDL [MTW1] | 3.4 ± 0.081 | 3.38 ± 0.087 | 3.28 ± 0.057 | 3.3 ± 0.044
33 | ASKYNCDKSVCRKCYAR [RPL40A] | 2.81 ± 0.056 | 2.9 ± 0.058 | 2.87 ± 0.046 | 2.73 ± 0.053
34 | QPVLEKPLKKGSADIGA [SIR4] | 3.16 ± 0.078 | 3.1 ± 0.061 | 3.08 ± 0.042 | 2.94 ± 0.055
35 | LPEIAKEIYTTLGNQML [YJR042W/NUP85] | 2.28 ± 0.086 | 2.42 ± 0.087 | 2.87 ± 0.093 | 2.49 ± 0.069
36 | YNRRQDKKNKRLKFGHR [SNF2] | 3.01 ± 0.092 | 3.14 ± 0.09 | 3.22 ± 0.093 | 3.09 ± 0.095
37 | TEGCIGLSQTEAFGNIK [MCD1] | 2.61 ± 0.058 | 2.61 ± 0.076 | 2.81 ± 0.093 | 2.56 ± 0.072
38 | SIGINDVTPADDLKQKK [RPO31] | 2.99 ± 0.25 |  |  | 

Row | Sequence | protein stability index (doa10∆) | protein stability index (pdr5∆) | protein stability index (san1∆) | protein stability index (ubr1∆)
39 | YAKSEFDNVASVFMPLI [ECM29] | 3.04 ± 0.054 | 2.8 ± 0.049 | 3.08 ± 0.039 | 3.09 ± 0.046
40 | YKPGSITLENITRLCQT [MED1] | 2.14 ± 0.044 | 2.23 ± 0.041 | 1.79 ± 0.046 | 1.99 ± 0.032
41 | MVVQNSPVSSVHTANFS [MED2] | 2.12 ± 0.1 | 2.67 ± 0.075 | 2.01 ± 0.099 | 2.75 ± 0.054
42 | SILKRHSFAVLLHERKL [NUT1] | 2.19 ± 0.12 | 2.13 ± 0.078 | 2.26 ± 0.18 | 2.45 ± 0.1
43 | KEEQPKQIIVTRKAMLD [PRP8] | 2.62 ± 0.078 | 3.09 ± 0.082 | 2.71 ± 0.068 | 2.61 ± 0.049
44 | SPEQIDASPDSLEALID [YCS4] | 2.92 ± 0.054 | 2.88 ± 0.049 | 2.94 ± 0.044 | 3.05 ± 0.041
45 | KIPSASIWGNGYSGYGN [SNF5] | 3.25 ± 0.1 | 3.27 ± 0.11 | 3.42 ± 0.095 | 3.3 ± 0.05
46 | CKKNTKKCLKLAYENKI [POP4] | 2.77 ± 0.068 | 2.7 ± 0.076 | 2.87 ± 0.057 | 3.13 ± 0.067
47 | VTNSLSNEEKEKIKMKL [GAL11] |  |  | 3.1 ± 0.13 | 
48 | LLGYTGIPTDKGPRFRK [PRE8] | 2.81 ± 0.18 | 3.02 ± 0.14 | 2.66 ± 0.066 | 2.98 ± 0.11
49 | DELVLNFENDNENNSNG [REC8] | 2.88 ± 0.19 | 2.62 ± 0.28 | 2.64 ± 0.15 | 2.79 ± 0.16
50 | SSRPNVNTTRRFQYSDD [YMR129W/POM152] | 2.93 ± 0.14 | 3.16 ± 0.11 | 2.4 ± 0.16 | 2.69 ± 0.088
51 | IVGLATLIVNTDVEKSD [SRP21] |  |  |  | 3.69 ± 0.26
52 | KAEYVDQYDAERDFYHS [RPO31] | 2.75 ± 0.061 | 2.97 ± 0.1 | 3.23 ± 0.097 | 3.16 ± 0.06
53 | LNAIVSKNSPAEDDVII [YJR042W/NUP85] | 3.44 ± 0.14 | 3.37 ± 0.17 | 3.27 ± 0.087 | 3.22 ± 0.12
54 | EKFPNDVKLLNPIDIKR [RPP1] | 2.91 ± 0.062 | 2.97 ± 0.041 | 3.14 ± 0.038 | 3.01 ± 0.039
55 | LSNCLANARDFGEWAGM [BRR2] | 2.35 ± 0.089 | 2.41 ± 0.095 | 2.28 ± 0.17 | 2.45 ± 0.07
56 | YTQYTNDYLEKHSVTEY [CDC53] | 2.55 ± 0.1 | 2.45 ± 0.075 | 2.81 ± 0.071 | 3.13 ± 0.092
57 | TELASKDNAIYNGFIDI [YCS4] | 1.42 ± 0.072 | 1.68 ± 0.071 | 1.09 ± 0.14 | 1.48 ± 0.05
